Experimental data as given in article PMC3048872, “The Regulatory Subunit of PKA-I Remains Partially Structured and Undergoes β-Aggregation upon Thermal Denaturation” (PLoS ONE, 2011).

Molecular target: the molecule itself
Assay: dynamic light scattering; thermally denatured RIα(92–381), soluble aggregates; 10 mM K-phosphate buffer, 50 mM KCl, pH 7.5; measured at 22 and 60°C

B1: human RIα(92–381), regulatory subunit RIα of cAMP-dependent protein kinase (PKA), truncated form with the tandem CNB domains A and B (domain or fragment, UniProt P10644 92-381, looked up)
chain: KGRRRRGAISAEVYTEEDAASYVRKVIPKDYKTMAALAKAIEKNVLFSHLDDNERSDIFDAMFSVSFIAGETVIQQGDEGDNFYVIDQGETDVYVNNEWATSVGEGGSFGELALIYGTPRAATVKAKTNVKLWGIDRDSYRRILMGSTLRKRKMYEEFLSKVSILESLDKWERLTVADALEPVQFEDGQKIVVQGEPGDEFFIILEGSAAVLQRRSENEEFVEVGRLGPSDYFGEIALLMNRPRAATVVARGPLKCVKLDRPRFERVLGPCSDILKRNIQQYNSFVSLSV
notes: cAMP-dependent protein kinase type I-alpha regulatory subunit (RIα), human, residues 92-381, numbering according to Swiss-Prot P10644; lacks the N-terminal docking/dimerization domain; In the aggregation experiments the protein was thermally denatured; the self-association is that of the partly unfolded, non-native state; also called apo-RIα(92–381); wt RIα(92–381); source: E. coli BL21 (DE3) …
Does B1 bind?
Result: binds
